Results on four molecules are retold here after paper PMC6092121, “Structure of mouse protocadherin 15 of the stereocilia tip link in complex with LHFPL5” (eLife, 2018).

Sequences and labels used below:
B3: LHFPL5, purified in complex with PCDH15 for cryo-EM (Strep-mCerulean removed) (natural protein, mouse (Mus musculus), UniProt Q4KL25 2-219, looked up)
chain: VKLLPAQEAAKIYHTNYVRNSRAVGVMWGTLTICFSVLVMALFIQPYWIGDSVSTPQAGYFGLFSYCVGNVLSSELICKGGPLDFSSIPSRAFKTAMFFVALAMFLIIGSIICFSLFFVCNTATVYKICAWMQLAAATGLMIGCLVYPDGWDSSEVRRMCGEQTGKYTLGHCTIRWAFMLAILSIGDALILSFLAFVLGYRQDKLLPDDYKADGNEEV
notes: called full length LHFPL5 in the text; also called TMHS; not shown: Strep, N-terminal, cleaved; mCerulean, N-terminal, cleaved

For series [1], the target named is B3. Nature of the series: cryo-EM structure; PCDH15_(4EC)-LHFPL5 complex co-expressed and co-purified in digitonin with 1 mM CaCl2; Volta phase plate; straight conformation, C2, ~11.3 Å; domains fitted as rigid bodies. The settings on record: both partners purified.
Series [2] deals with the molecule itself. The description is as above.
Series [3] deals with the molecule itself. Nature of the series: AUC; sedimentation velocity, global direct boundary modelling (Lamm equation, kinetic homo-dimerization model) of samples at 2.3, 7.0 and 11.8 µM; dimer to monomers.
Series [4] concerns the molecule itself. Nature of the series: AUC; sedimentation velocity, 20°C, 50,000 rpm, absorbance 280 nm, 20 mM Tris pH 8.0, 150 mM NaCl; loading concentrations 0.1-57.8 µM; sw isotherm fitted with a monomer-dimer model; dimer to monomers.
Series [5] deals with the molecule itself. Nature of the series: cryo-EM structure; PCDH15_(1EC)-LHFPL5 complex co-expressed and co-purified in digitonin; C2, ~4.5 Å.
In series [6] the target is B3. The series is described as above. Particulars: both partners purified.

B1: PCDH15_(4EC), purified in complex with LHFPL5 for cryo-EM (domain or fragment, mouse (Mus musculus), UniProt Q99PJ1 27-30, looked up)
chain: QYDDSPVFTNSTYTVVVEENLPAGTSFLQIEAKDVDLGANVSYRIRSPEVKHLFALHPFTGELSLLRSLDYEAFPDQEASITFLVEAFDIYGTMPPGIATVTVIVKDMNDYPPVFSKRIYKGMVAPDAVKGTPITTVYAEDADPPGMPASRVRYRVDDVQFPYPASIFDVEEDSGRVVTRVNLNEEPTTIFKLVVVAFDDGEPVMSSSATVRILVLHPGEIPRFTQEEYRPPPVSELAARGTVVGVISAAAINQSIVYSIVAGNEEDKFGINNVTGVIYVNSPLDYETRTSYVLRVQADSLEVVLANLRVPSKSNTAKVYIEIQDENDHPPVFQKKFYIGGVSEDARMFASVLRVKATDRDTGNYSAMAYRLIIPPIKEGKEGFVVETYTGLIKTAMLFHNMRRSYFKFQVIATDDYGKGLSGKADVLVSVVNQLDMQVIVSNVPPTLVEKKIEDLTEILDRYVQEQIPGAKVVVESIGARRHGDAYSLEDYSKCDLTVYAIDPQTNRAIDRNELFKFLDGKLLDINKDFQPYYGEGGRILEIRTPEAVTSIKKRGESLGYTEGALLALAFIIILCCIPAILVVLVSYRQFKVRQAECTKTARIQSAMPAAKPAAPVPAAPAPPPPPPPPPPGAHLYEELGESAMH
modifications: N-linked glycosylation (predicted sites; density at EC10 and EC11)
notes: signal peptide in the construct; the tag may have stayed on; not shown: mVenus, C-terminal, cleaved; 8xHis, C-terminal, cleaved
Consider B1, for which the binding result in series [1] and in series [2] was “binds” each time.

B2: PCDH15 EC11-ELAUC (domain or fragment, mouse (Mus musculus), UniProt Q99PJ1 27-30, looked up)
chain: QYDDHPPVFQKKFYIGGVSEDARMFASVLRVKATDRDTGNYSAMAYRLIIPPIKEGKEGFVVETYTGLIKTAMLFHNMRRSYFKFQVIATDDYGKGLSGKADVLVSVVNQLDMQVIVSNVPPTLVEKKIEDLTEILDRYVQEQIPGAKVVVESIGARRHGDAYSLEDYSKCDLTVYAIDPQTNRAIDRNELFKFLDGKLLDINKDFQPYYGEGGRILEIRTPEAVTSIKKRGESLGYTEG
modifications: treated with PNGase
notes: signal peptide in the construct; also called protocadherin 15; source: HEK293S GnTI- cells, BacMam, secreted, purified (TALON, PNGase treatment, SEC; no thrombin digestion); not shown: 8xHis, C-terminal, kept
As usually defined, the Kd is the free concentration of one partner at which half of the binding sites on the other are occupied at equilibrium, for simple one-to-one binding. The term koff denotes the rate constant with which the complex falls apart. Lower therefore signals a long-lived complex. For orientation: stoichiometry N means the number of molecules, sites or subunits per partner or assembly. With B2, in series [3], the Kd is 6.64 µM and the koff is 0.00035 s⁻¹. For the same molecule, in series [4], the Kd was 5.7 µM and the “stoichiometry N” value worked out at 2.
For the molecule B3, in series [5], the “stoichiometry N” value was found to be 2.

B4: PCDH15_(1EC) (EC11 to CR), purified in complex with LHFPL5 for cryo-EM (domain or fragment, mouse (Mus musculus), UniProt Q99PJ1 27-30, looked up)
chain: QYDDHPPVFQKKFYIGGVSEDARMFASVLRVKATDRDTGNYSAMAYRLIIPPIKEGKEGFVVETYTGLIKTAMLFHNMRRSYFKFQVIATDDYGKGLSGKADVLVSVVNQLDMQVIVSNVPPTLVEKKIEDLTEILDRYVQEQIPGAKVVVESIGARRHGDAYSLEDYSKCDLTVYAIDPQTNRAIDRNELFKFLDGKLLDINKDFQPYYGEGGRILEIRTPEAVTSIKKRGESLGYTEGALLALAFIIILCCIPAILVVLVSYRQFKVRQAECTKTARIQSAMPAAKPAAPVPAAPAPPPPPPPPPPGAHLYEELGESAMH
notes: signal peptide in the construct; source: HEK293 tsa201 (suspension), BacMam co-infection with LHFPL5, purified (Strep-Tactin, TALON, thrombin, SEC in digitonin); not shown: mVenus, C-terminal, cleaved; 8xHis, C-terminal, cleaved
For B4, in series [6], the binding result is “binds”. In addition, the “stoichiometry N” value in series [5] amounted to 2.
